In patent US20140370037A1 (published 2014):
Positions count from the first letter of the chain named. Each block holds one binder with its values, some of them ahead of it.

Target: T1, human DLL3 antigen (human, UniProt Q9NYJ7 27-492, limits assumed)
T1 construct: also called immobilized human DLL3; recombinant human DLL3
T1 sequence (looked up): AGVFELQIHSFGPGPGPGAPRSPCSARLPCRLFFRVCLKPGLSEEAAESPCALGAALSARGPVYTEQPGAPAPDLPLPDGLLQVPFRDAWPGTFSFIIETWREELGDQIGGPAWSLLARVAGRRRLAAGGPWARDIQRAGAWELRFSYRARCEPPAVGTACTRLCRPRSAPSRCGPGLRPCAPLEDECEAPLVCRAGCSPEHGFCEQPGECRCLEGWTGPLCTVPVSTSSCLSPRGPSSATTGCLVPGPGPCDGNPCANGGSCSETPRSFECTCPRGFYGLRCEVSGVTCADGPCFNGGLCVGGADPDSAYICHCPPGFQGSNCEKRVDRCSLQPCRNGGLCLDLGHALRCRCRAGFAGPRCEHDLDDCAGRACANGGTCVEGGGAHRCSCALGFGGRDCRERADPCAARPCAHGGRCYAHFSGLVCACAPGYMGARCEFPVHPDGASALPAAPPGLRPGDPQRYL
Assay: ELISA or flow cytometry screen

B2: SC16.21 (antibody, V domains shown)
VH: QVQLQQSGPELVKPGASVKISCKASGYAFSSSWMNWVKQRPGKGLEWIGRIYPGDGDTNYNGKFKGKATLTADKSSSTAYMQLSSLTSEDSAVYFCAMGIYNYDGSRYYSMDYWGQGTSVTVSS
VL: DIVMTQSPSSLAMSVGQKVTMSCKSSQSLLNSSNQKNYLAWYQQEPGQSPKLLVSFASTRESGVPDRFTGSGSGTDFTLTISGVQAEDLAVYYCQQHYSIPLTFGAGTKLELK
notes: murine mAb
binding result: binds

B3: SC16.18 (antibody, V domains shown)
VH: EVKLEESGGGLVQPGESMKLSCAASGFTFSDAWMDWVRQSPEKGLEWVAEIRNKANNHATYYAESVKGKFTISRDDSKSRVYLQMNNLRAADTGIYYCTAYSNFAYWGQGTLVTVST
VL: DIQMTQTTSSLSASLGDRVTISCRASQNIINYLNWYQQKPDGTVKLLIYYTSRLHSGVPSRFSGSGSGTDYSLTISNLEPEDIATYYCQQYSERPYTFGGGTKLEIKR
notes: murine mAb
binding result: binds

B5: SC16.5 (antibody, V domains shown)
VH: QVTLKESGPGILQPSQTLSLTCSFSGFSLSTSGMGVGWIRQPSGEGLEWLADIWWDDNKYYNPSLKSRLTISKDTSSNQVFLKITSVDTADTATYYCARRVNYVYDPYYAMDYWGQGTSVTVSS
VL: QIVLTQSPAIMSASPGEKVTMTCSASSSVSYMHWYQQKSGTSPKRWIYDTSKLASGVPARFSGSGSGTSYSLTISSMEAEDAATYYCQQWTRNPLTFGAGTKLELK
notes: murine mAb
binding result: binds

B6: SC16.22 (antibody, V domains shown)
VH: QVQLQQPGAELVKPGASVKLSCKASGYTFTTYWMHWVKQRPGQGLEWIGEIDPSDSYTYYNQKFKGKATLTVDKSSSTAYMQLSSLTSEDSAVYYCARGDYGNPYAMDYWGQGSSVTVSS
VL: DIQMTQTTSSLSASLGDRVTISCRASQDIKNYLNWYQQKPDGTVKPLIYYTSRVHSGVPSRFSGSGSGTDYSLTISNLEQEDIATYFCQQGYTLPFTFGSGTKLE
notes: murine mAb
binding result: binds

B7: SC16.19 (antibody, V domains shown)
VH: EVQLQQSGAELVRPGASVKLSCTASGFNIKDSLLHWVKQRPEKGLEWIGWIDPEDGETKYAPNFQDKATITTDSSSNTAYLQLISLTSVDTAIYYCAYGNYVRHFDYWGQGTTLTVSS
VL: DIQMTQSPSSLSASLGGKVTFTCKASQDIHKYVAWYQHKPGKGPRLLIHYTSTLQPGISSRFSGSGSGRDYSFSISNLEPEDIATYYCLQYNNLYTFGGGTKLEIKR
notes: murine mAb
binding result: binds

B8: SC16.23 (antibody, V domains shown)
VH: QVTLKESGPGILQPSQTLSLTCSFSGFSLSTSNTGIGWIRQPSGTGLEWLAHIWWNDDKYYNPSLKSRLTISKETSNNQVFLKITNVDTADTASYFCVQIGRDYSNYAWYFDVWGAGTTVTVSS
VL: QIVLTQSPAIMSASPGEKVTLTCSASSSVSSRYLYWYQQKPGSSPKLWIYSTSNLASGVPARFSGSGSGTSYSLIISSMEAEDAASYFCHQWSNYPLTFGAGTKLELK
notes: murine mAb
binding result: binds

The next lines start with the values.

binding result: binds
B1: SC16.3 (antibody, V domains shown)
VH: QVTLKESGPGILQPSQTLSLTCSFSGFSLSTSGMGVGWIRQPSGKGLEWLAHIWWDDVKRYNPALKSRLTISKDTSSSQVFLKIASVDTADTATYYCARIADYGGDYYAMDYWGQGTSVTVSS
VL: QIVLTQSPAIMSVSLGERVTMTCTASSSVSSSYLHWYQQKPGSSPKLWIYSTSNLASGVPARFSGSGSGTSYFFTISSMEAEDAATYYCHQYHRSPFTFGAGTKLKIR
notes: murine mAb; also called mAb SC16.3

binding result: binds
B4: SC16.41 (antibody, V domains shown)
VH: B3 VH with P14F, E16G, A63P, K69R, A91E, A100G, N103S, T117A
VL: B3 VL with N28D, I29V, G68R
notes: murine mAb

binding result: binds
B9: SC16.20 (antibody, V domains shown)
VH: QVQLQQSGTELVRPGTSVRVSCKASGYAFGNHLIEWVKQRPGQGLEWIGVINPGTGGTHYNEKFKDKARLTADKSSNTAYMHLNSLTSDDSAVYFCARSPYDYHEGAMDYWGQGTSVTVSS
VL: EIQMTQSPSSMSASLGDRITITCQATQDIVKNLNWYQQKPGKPPSFLIYYATELAEGVPSRFSGSGSGSDYSLTIRNLESEDFADHYCLQFYEFPFTFGAGTKLELK
notes: murine mAb
